From patent US20210040201A1

How the values were obtained:
[1] = biological target: Human TIGIT expressed on the surface of cells (human) (UniProt Q495A1); test: cell-based or functional assay
[2] = biological target: Human TIGIT expressed on the surface of cells (human) (UniProt Q495A1); test: flow cytometry competition against 50 nM human CD155-mouse IgG2a Fc on CHOS cells expressing human TIGIT; negative control
[3] = biological target: Human TIGIT expressed on the surface of cells (human) (UniProt Q495A1); test: flow cytometry competition against 50 nM human CD155-mouse IgG2a Fc on CHOS cells expressing human TIGIT; negative control (text says IgG4)
[4] = biological target: Human TIGIT expressed on the surface of cells (human) (UniProt Q495A1); test: flow cytometry, antibody titrated on CHO cells expressing human TIGIT, median fluorescence intensity; fit value of the flat negative-control curve in the table under the graph
[5] = biological target: Human TIGIT expressed on the surface of cells (human) (UniProt Q495A1); test: flow cytometry competition with 50 nM human CD155-mouse IgG2a Fc on CHOS cells overexpressing human TIGIT; fit value of the flat negative-control curve; the row of the drawn table is headed EC50, the text calls the values IC50

Human TIGIT expressed on the surface of cells (human), sequence (Q495A1 22-244 limits assumed): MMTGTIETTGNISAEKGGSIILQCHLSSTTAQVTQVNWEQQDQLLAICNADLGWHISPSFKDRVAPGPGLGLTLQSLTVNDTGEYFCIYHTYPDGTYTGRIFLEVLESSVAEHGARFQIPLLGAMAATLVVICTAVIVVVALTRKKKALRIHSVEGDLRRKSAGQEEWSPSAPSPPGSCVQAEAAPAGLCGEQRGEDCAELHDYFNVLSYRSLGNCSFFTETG

EC50, MOA-based assay (luciferase reporter under IL2 promoter) [1] | IC50 [2] | IC50 [3] | EC50 [4] | IC50 [5] | Substance
273 nM | 0.039 nM | 1.15 nM | – | – | IgG1 (negative control) (antibody)
– | – | – | 53200 nM | 1.15 nM | IgG4 (antibody)
